The results in this text go back to article PMC3325269, “Non-Agonistic Bivalent Antibodies That Promote c-MET Degradation and Inhibit Tumor Growth and Others Specific for Tumor Related c-MET” (PLoS ONE, 2012).

As usually defined, the Kd is the equilibrium constant for the complex coming apart. Read a high Kd as lower affinity.

In assay [1] the target is T1, c-MET on the surface of A549 lung cancer cells (Homo sapiens (A549), UniProt P08581).
T1 construct: c-MET, the receptor for hepatocyte growth factor/scatter factor, as expressed on cells; also called surface c-MET; c-MET receptor; source: endogenous, on A549 cells (U87MG cells in one down-regulation assay)
T1 sequence (P08581 25-1390): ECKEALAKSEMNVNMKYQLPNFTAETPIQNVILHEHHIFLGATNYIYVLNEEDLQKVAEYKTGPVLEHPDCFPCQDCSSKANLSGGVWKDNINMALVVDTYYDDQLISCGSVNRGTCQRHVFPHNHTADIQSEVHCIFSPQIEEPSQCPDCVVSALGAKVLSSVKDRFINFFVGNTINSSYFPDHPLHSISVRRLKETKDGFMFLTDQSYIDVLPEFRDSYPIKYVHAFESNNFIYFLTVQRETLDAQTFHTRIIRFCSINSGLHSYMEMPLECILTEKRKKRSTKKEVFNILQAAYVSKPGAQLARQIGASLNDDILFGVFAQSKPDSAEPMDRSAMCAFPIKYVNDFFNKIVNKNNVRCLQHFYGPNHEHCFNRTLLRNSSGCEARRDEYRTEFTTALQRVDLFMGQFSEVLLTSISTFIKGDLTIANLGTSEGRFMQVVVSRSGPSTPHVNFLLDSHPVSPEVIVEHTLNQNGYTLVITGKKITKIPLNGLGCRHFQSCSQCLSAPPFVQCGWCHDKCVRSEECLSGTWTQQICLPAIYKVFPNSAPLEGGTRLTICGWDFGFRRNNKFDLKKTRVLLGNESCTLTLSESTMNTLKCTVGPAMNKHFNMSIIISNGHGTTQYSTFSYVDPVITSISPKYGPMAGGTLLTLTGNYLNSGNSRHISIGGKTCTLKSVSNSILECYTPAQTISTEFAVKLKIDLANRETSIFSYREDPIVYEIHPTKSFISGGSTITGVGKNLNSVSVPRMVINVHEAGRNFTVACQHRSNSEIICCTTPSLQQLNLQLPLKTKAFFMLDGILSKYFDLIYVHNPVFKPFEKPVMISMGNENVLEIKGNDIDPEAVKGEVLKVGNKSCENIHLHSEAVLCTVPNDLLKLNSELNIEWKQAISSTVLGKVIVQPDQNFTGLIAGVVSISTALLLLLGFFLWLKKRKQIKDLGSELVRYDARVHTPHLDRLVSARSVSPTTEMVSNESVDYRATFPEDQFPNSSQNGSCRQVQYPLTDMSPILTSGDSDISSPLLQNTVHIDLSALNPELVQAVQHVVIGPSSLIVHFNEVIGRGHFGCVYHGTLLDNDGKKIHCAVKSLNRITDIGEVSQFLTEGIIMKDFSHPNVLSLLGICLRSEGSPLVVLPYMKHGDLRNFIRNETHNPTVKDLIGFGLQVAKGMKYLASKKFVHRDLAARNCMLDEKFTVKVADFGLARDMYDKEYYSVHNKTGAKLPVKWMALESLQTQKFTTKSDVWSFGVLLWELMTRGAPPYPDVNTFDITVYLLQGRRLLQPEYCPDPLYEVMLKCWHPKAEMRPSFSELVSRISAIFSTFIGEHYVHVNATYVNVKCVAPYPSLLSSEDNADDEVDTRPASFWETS
The experiment in a line: flow cytometry on cells; A549 cells, 10 µg/ml of each LMH antibody in 1% HSA/PBS, 1 h at 4°C; anti-mouse IgG-PE secondary. The note with it: one partner purified.

Assay [2] concerns the target T2, mature c-MET (disulphide-linked α/β heterodimer) (Homo sapiens (A549), UniProt P08581).
T2 construct: c-MET α-chain, extracellular 50 kDa product of furin cleavage of the precursor; c-MET β-chain, extracellular/intracellular 145 kDa product of furin cleavage of the precursor, contains the TK domain; Detected in the immunoprecipitates by the 145 kDa β-chain band (mAb 25H2); also called mature receptor; source: endogenous, A549 lysate
The experiment in a line: co-IP; immunoprecipitation of endogenous c-MET from A549 lysates (Triton X-100 lysis buffer) with the LMH antibody; membranes blotted with mAb 25H2. The note with it: one partner purified.

Assay [3] addresses T3, c-MET extracellular domain (Homo sapiens, UniProt P08581).
T3 construct: c-MET extracellular domain; also called immobilized c-MET extracellular domain
The experiment in a line: SPR; BIAcore; c-MET extracellular domain immobilized, different concentrations of purified LMH antibodies (intact IgG). The note with it: both partners purified. For orientation: SPR reads the build-up and loss of mass on a sensor chip optically.

T3 sequence (P08581 25-932): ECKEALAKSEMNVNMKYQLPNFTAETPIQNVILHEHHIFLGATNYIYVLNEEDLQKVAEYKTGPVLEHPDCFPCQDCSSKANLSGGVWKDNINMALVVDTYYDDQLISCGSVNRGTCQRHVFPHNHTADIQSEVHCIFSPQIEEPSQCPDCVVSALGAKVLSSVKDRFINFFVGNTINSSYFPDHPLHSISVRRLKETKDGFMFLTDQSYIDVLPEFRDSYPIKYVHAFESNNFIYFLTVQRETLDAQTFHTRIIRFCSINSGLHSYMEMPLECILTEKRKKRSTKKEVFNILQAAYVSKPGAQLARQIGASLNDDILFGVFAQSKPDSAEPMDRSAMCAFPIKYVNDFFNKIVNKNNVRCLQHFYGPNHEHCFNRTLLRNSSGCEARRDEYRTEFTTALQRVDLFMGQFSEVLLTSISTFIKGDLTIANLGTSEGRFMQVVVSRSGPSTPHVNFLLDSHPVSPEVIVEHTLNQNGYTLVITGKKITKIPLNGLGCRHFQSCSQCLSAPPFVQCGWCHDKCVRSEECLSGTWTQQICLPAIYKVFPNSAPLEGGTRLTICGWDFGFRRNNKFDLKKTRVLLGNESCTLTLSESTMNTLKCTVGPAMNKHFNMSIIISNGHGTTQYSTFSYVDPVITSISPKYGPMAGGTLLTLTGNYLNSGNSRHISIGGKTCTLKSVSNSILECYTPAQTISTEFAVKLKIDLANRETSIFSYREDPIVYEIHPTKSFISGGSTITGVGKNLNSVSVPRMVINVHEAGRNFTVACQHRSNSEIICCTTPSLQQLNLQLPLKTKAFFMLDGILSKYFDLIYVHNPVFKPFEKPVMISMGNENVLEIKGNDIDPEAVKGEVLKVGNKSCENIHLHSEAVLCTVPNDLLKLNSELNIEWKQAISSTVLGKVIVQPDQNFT

B1: LMH 85 (antibody, V domains shown)
VH: QVQLQQSGAELAKPGASVKMSCKASGYTFIIYWIHWIKQRPGQGLEWIGYINPSNDYTEYNQKFKDKATLTADKSSNTAFMQLSSLTSEDSAVYYCARDSYDYDDGAYAMDYWGQGTSVTVSS
VL: QIVLSQSPAILSASPGEKVTMTCRASSGVNYMHWYQQKPGSSPKPWIYATSNLASGVPARFSGSGSGTSYSLTISRVEAEDAATYYCQQWISHPFTFGSGTKLEIK
notes: VH domain; heavy chain constant region of a mouse IgG; VL domain; light chain constant region of a mouse antibody; Intact bivalent mouse monoclonal antibody, agonist of c-MET; also called LMH 85 antibody; mAb LMH 85; source: clonal supernatants in the screening ELISA; copies: 2 + 2
Regarding B1, the binding result in assay [1] and in assay [2] was “binds” throughout.

B2: LMH 87 (antibody, V domains shown)
VH: QVQLQQSGPELVKSGASVKMSCKASGNTLKDDHVHWVKQRPGQGLEWIGWIYPGGGRTRYNEKFKGKTTLTADKPSSTVNMLLSSLTSEDSAIYFCTNLVFDVWGAGTTVTVSS
VL: DIVMTQAAPSVPVTPGESVSISCRSSKSLLHSNGNTYLYWFLQRPGQSPQVLIYRMSNLASGVPDRFSGSGSGTAFTLRIRRVEAEDVGVYYCMQNLEYPFTFGGGTKLEIK
notes: VH domain; heavy chain constant region of a mouse IgG; VL (Vk) domain; light chain constant region of a mouse antibody (the methods call the variable segment Vk); Intact bivalent mouse monoclonal antibody; also called LMH 87 antibody; mAb LMH 87; source: clonal supernatants in the screening ELISA; copies: 2 + 2
B2 yielded a Kd in assay [3] of 2.6 nM.
